Laboratory results published in PMC2688778 (Structure (London, England : 1993), 2009).

Molecular target: the molecule itself
Experiment: crystal structure

B1: RecE^606 (P658L) (residues 606-866 of E. coli RecE protein with the P658L mutation) (domain or fragment, UniProt P15032 606-866, looked up)
chain: ENYHAGPGISKSQLDDIADTPALYLWRKNAPVDTTKTKTLDLGTAFHCRVLELEEFSNRFIVAPEFNRRTNAGKEEEKAFLMECASTGKTVITAEEGRKIELMYQSVMALPLGQWLVESAGHAESSIYWEDPETGILCRCRPDKIIPEFHWIMDVKTTADIQRFKTAYYDYRYHVQDAFYSDGYEAQFGVQPTFVFLVASTTIECGRYPVEIFMMGEEAKLAGQQEYHRNLRTLSDCLNTDEWPAIKTLSLPRWAKEYAND
In the case of B1, the “stoichiometry N” value is reported as 4.
